Measured values: patent US20260265697A1, “COMPOSITIONS AND METHODS OF PREPARING AIRWAY CELLS” (Yale University, priority 2014, published 2026)

How the values were obtained:
human iPS cells = test: Differentiation of human iPS cells to definitive endoderm (DE), flow cytometry at day 5; type: cell-based
Experimental: iPS cells were first differentiated towards definitive endoderm (DE). DE cells were initiated under conditions described previously. Briefly, iPS cells were cultured in RPMI 1640 medium supplemented with 100 ng/ml activin A, 2 mM L-glutamine and 1% antibiotic-antimycotic for 48 hours. Then, 1×B27 supplement and 0.5 mM sodium butyrate were added into the same medium and iPS cells were cultured in this medium for 3 days with daily medium changes.
(§1) For flow cytometry, cells were fixed with the fixation solution from the Fixation/Permeabilization kit (BD Biosciences), and stained with primary and detection antibodies as described by the manufacturer. Briefly cells were dissociated into single-cell suspensions by incubation with 0.25% trypsin for 2 min. The dissociated cells were resuspended (0.5×10^6 cells) in 250 μl of fixation/permeabilization solution, kept on ice for 20 min, and washed twice with Perm/Wash buffer. After blocking with blocking solution for 30 min on ice, the cells were incubated with corresponding primary antibody in the blocking solution for 30 min on ice. The cells were resuspended in 350 μl of Perm/Wash buffer after incubation with corresponding conjugated secondary for 30 min on ice, washed twice, and analyzed by flow cytometry.
Human iPS cells were differentiated to DE cells using serum free conditions (FIG. 1). By exposing iPS cells to saturating concentrations of activin A, greater than 85% endodermal cells were generated. […] 89% of cells were positive for c-kit (FIG. 2A), 91% positive for SOX17 (FIG. 2C), 93% positive for FOXA2 (FIG. 2B), and 88% of the cells expressed the endoderm surface marker CXCR4 (FIG. 2D) in clone C1.

[1] = tested on: iPS cell-derived DE cells; test: Lung endoderm specification of DE cells, NKX2.1+ and NKX2.1+FOXA2+ cells; type: cell-based, human; conditions: FIG. 3B
Experimental: (§2) Subsequently, the DE cells were trypsinized and replated on human ECM protein coated plates and were differentiated to anterior foregut endoderm (AFE) by exposing them sequentially between days d5 to d7 to combinations of the small molecule inhibitors in IMDM with 10% FBS, 2 mM L-glutamine, 1 mM nonessential amino acids, 1% antibiotic-antimycotic.
Then AFE cells were maintained in lung endoderm differentiation medium consisting of IMDM with 20% FBS, 2 mM L-glutamine, 1 mM nonessential amino acids, 1% antibiotic-antimycotic, retinoic acid (0.5 μM), bFGF (10 ng/ml), BMP4 (10 ng/ml), Wnt3a (100 ng/ml), and KGF (10 ng/ml each) for 5 days. […]
For flow cytometry, cells were fixed with the fixation solution from the Fixation/Permeabilization kit (BD Biosciences), and stained with primary and detection antibodies as described by the manufacturer. […] The cells were resuspended in 350 μl of Perm/Wash buffer after incubation with corresponding conjugated secondary for 30 min on ice, washed twice, and analyzed by flow cytometry.
NKX2.1^+is the earliest marker of cells that distinguish future lung from other derivatives of the foregut endoderm. […] The percentages of NKX2.1^+ cells were quantified as percentages of the total cells present. […]

[2] = tested on: iPS cell-derived DE cells; test: Anterior foregut endoderm (AFE) differentiation of DE cells, FOXA2+SOX2+ cells by flow cytometry; type: cell-based, human; conditions: day 7, flow cytometry, FIG. 3A
Experimental: as §2
as §1, with “After blocking with blocking solution for 30 min on ice, the cells were incubated with corresponding primary antibody in the blocking solution for 30 min on ice.” left out, “cytometry. […]” for “cytometry.”
BMP4 signaling is required for lung specification and an increase in bFGF and WNT concentration increases NKX2.1^+immature lung progenitors. […] The numbers of cells double positive for FOXA2^+SOX2^+anterior endoderm cells were quantified out of the total FOXA2^+endoderm cells by flow cytometry.

[3] = day 5, flow cytometry, clone C1

B1: activin A (protein, UniProt P08476 311-426, looked up)
Inhibin beta A chain: GLECDGKVNICCKKQFFVSFKDIGWNDWIIAPSGYHANYCEGECPSHIAGTSGSSLSFHSTVINHYRMRGHSPFANLKSCCVPTKLRPMSMLYYDDGQNIIKKDIQNMIVEECGCS
modifications: Inhibin beta A chain
notes: agent that induces differentiation of iPS cells to definitive endoderm cells
For B1, the “cells expressing endoderm surface marker CXCR4” value (human iPS cells; [3]) was 88%, the “cells positive for FOXA2” value (human iPS cells; [3]) was 93% and the “cells positive for SOX17” value (human iPS cells; [3]) was 91%. The “cells positive for c-kit” value (human iPS cells; [3]) was 89%, the endodermal cells generated (human iPS cells; saturating concentrations of activin A, serum free conditions) was “greater than 85%” and the “number of NKX2.1+ cells (percentage of total cells)” value [1] was “few”. The “number of FOXA2+SOX2+ anterior endoderm cells out of total FOXA2+ endoderm cells” value [2] was “rare”.
